Measured values from patent US20260184775A1 (Chugai, published 2026).

Experiments:
[1] = target: T1, recombinant human latent TGF-beta 1 (Flag-tagged human latent TGF-beta 1) (human, UniProt P01137 34-390); experiment: SPR, Biacore T200, 37 C, pH 7.4; antibody captured by anti-human Fc, latent TGF-beta 1 injected at 3.125 to 50 nM
T1 construct: Latent form: LAP plus mature TGF-beta 1; also called human recombinant latent TGF-beta 1; SLC
Procedure: (§1) The affinities of anti-latent TGF-beta 1 antibodies binding to human or mouse latent TGF-beta 1 at pH 7.4 were determined at 37 degrees C. using Biacore T200 instrument (GE Healthcare). Anti-human Fc (GE Healthcare) was immobilized onto all flow cells of a CM4 sensor chip using an amine coupling kit (GE Healthcare). All antibodies and analytes were prepared in ACES pH 7.4 containing 20 mM ACES, 150 mM NaCl, 1.2 mM CaCl₂), 0.05% Tween 20, 0.005% NaN3. Each antibody was captured onto the sensor surface by anti-human Fc. Antibody capture levels were aimed at 300 resonance unit (RU). For TBA865 and TBA873, recombinant human or mouse latent TGF-beta 1 was injected at 12.5 to 200 nM prepared by two-fold serial dilution, followed by dissociation. For TBS139 and TBS182, recombinant human or mouse latent TGF-beta 1 was injected at 3.125 to 50 nM prepared by two-fold serial dilution, followed by dissociation. The sensor surface was regenerated each cycle with 3M MgCl2.

[2] = target: T2, recombinant mouse latent TGF-beta 1 (Flag-tagged mouse latent TGF-beta 1) (mouse, UniProt P04202 34-390); experiment: SPR, Biacore T200, 37 C, pH 7.4; antibody captured by anti-human Fc, latent TGF-beta 1 at 3.125 to 50 nM as analyte; 1:1 model
T2 construct: also called mouse recombinant latent TGF-beta 1
Procedure: as §1

T2 sequence (P04202 other isoform, or with tags, fused parts or gaps limits assumed): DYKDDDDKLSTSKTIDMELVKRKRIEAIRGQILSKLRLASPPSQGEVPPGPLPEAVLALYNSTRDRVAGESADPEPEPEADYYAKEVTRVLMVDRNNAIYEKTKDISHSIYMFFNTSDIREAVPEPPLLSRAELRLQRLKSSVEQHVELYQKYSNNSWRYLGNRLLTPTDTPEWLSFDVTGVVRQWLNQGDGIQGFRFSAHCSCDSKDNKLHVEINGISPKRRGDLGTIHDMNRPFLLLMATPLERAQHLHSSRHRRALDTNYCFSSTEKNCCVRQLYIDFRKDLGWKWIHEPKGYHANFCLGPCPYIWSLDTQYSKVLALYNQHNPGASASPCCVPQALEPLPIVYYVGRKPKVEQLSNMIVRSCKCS
T1 sequence (P01137 other isoform, or with tags, fused parts or gaps limits assumed): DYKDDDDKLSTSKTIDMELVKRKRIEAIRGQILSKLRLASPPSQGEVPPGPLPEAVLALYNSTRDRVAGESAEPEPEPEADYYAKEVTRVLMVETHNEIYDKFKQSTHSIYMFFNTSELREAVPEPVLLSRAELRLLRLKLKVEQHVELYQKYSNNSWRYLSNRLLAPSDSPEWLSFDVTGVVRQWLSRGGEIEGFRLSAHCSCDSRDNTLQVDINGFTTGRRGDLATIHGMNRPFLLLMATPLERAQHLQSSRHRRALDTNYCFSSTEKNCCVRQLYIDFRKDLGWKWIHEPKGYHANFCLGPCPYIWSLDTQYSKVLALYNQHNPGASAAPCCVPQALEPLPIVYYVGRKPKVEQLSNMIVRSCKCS

B1: TBS182 (antibody, V domains shown)
VH: QSLEESGGDLVKPGASLTLTCTASGFSFSRSYYMCWVRQAPGKGLEWIACIYGGSSGSTWYASWAKGRFTISKTSSTTVTLQMTSLTAADTATYFCARDIGNYYRWWGPGTLVTVSS
VL: AVVLTQTTSPVSAPVGGTVTIKCQASKNIYSLLAWYQQKPGQPPKLLIYDASTLASGVPSRFKGSGSGTQFTLTISDLECADAATYYCQSYYDSSSSADLSTFGGGTEVVVKR
- binding result [1]: no binding (tested: 50 nM)
- Kd [2]: 0.0482 nM
- koff [2]: 5.32e-05 s⁻¹
- kon [2]: 1.1e+06 M⁻¹ s⁻¹
